In this experiment the target is T1, recombinant spike S1S2 extracellular domain of SARS-CoV-2 (S1S2ECD-His) (SARS-CoV-2, UniProt P0DTC2 14-1213, IRDye 800CW NHS ester label (as the probe of the peptide array only)).
T1 construct: also called SARS-CoV-2 spike protein; S1S2 protein
In words: BLI; S1S2ECD-His amine-coupled on AR2G sensors (10 µg/mL in 10 mM sodium acetate pH 4); rhRod in solution, 8 concentrations a run; Octet Red384; KD by non-linear regression of the steady-state response. Conditions: both partners purified. In general terms: BLI is a label-free optical method that tracks binding on a fibre tip over time.

Broadly, the Kd is a measure of binding affinity in units of concentration.

B1: recombinant rod domain of vimentin (rhRod) (domain or fragment)
chain: not shown
modifications: IRDye 800CW NHS ester label (as the probe of the peptide array only)
notes: also called rhRod-1 to rhRod-7 (lots)
With B1, the Kd was found to be 163 nM.

The values above are taken from paper PMC10931652, “Recombinant Rod Domain of Vimentin Reduces SARS-CoV-2 Viral Replication by Blocking Spike Protein–ACE2 Interactions” (International Journal of Molecular Sciences, 2024).
